Experimental data from article PMC8727134.

B1: MT1 (dsDNA)
DNA 1: GAAAAATAACGTATGG
DNA 2: CCATACGTTATTTTTC
B2: WT2 (dsDNA)
DNA 1: AGCTCTGTGGTAGAAT
DNA 2: ATTCTACCACAGAGCT
B3: MT2 (dsDNA)
DNA 1: AGCTCCGTTATAGAAT
DNA 2: ATTCTATAACGGAGCT

Each binder was assayed against RUNX1 Runt domain (His6-RUNX1);CBFbeta (His6-CBFβ) (mouse;mouse, UniProt Q03347;Q08024 24-189;1-187, |) (assay: EMSA).
Sequence of RUNX1 Runt domain (His6-RUNX1);CBFbeta (His6-CBFβ) (Q03347 24-189, chain 1 of 2): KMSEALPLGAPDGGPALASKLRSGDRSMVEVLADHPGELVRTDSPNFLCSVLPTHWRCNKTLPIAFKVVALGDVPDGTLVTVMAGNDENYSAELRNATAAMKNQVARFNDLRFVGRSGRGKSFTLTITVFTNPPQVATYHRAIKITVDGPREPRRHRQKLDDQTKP
Sequence of RUNX1 Runt domain (His6-RUNX1);CBFbeta (His6-CBFβ) (Q08024 whole entry, chain 2 of 2, the tested form may be a part): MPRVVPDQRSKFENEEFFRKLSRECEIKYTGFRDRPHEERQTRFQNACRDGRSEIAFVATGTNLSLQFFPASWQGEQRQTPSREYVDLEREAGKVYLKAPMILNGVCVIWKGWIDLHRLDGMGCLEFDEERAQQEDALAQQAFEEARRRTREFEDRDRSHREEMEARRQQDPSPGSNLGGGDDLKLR

Binding result, no binding:
B1
B2
B3
